Assay results: article doi:10.1101/2020.05.26.116228, “Cataract-associated New Mutants S175G/H181Q of βB2-Crystallin and P24S/S31G of γD-Crystallin are Involved in Protein aggregation by Structural Changes” (bioRxiv, 2020)

Molecular target: the molecule itself
Assay: SEC; Superdex 200 HR 10/30 in PBS (140 mM NaCl, 2.7 mM KCl, 10 mM Na2HPO4, pH 7.4), 0.5 mL/min; protein 2 mg/mL or 450 μg/100 μL (methods); markers albumin 66.4 kDa and α-lactalbumin 14.2 kDa; dimer in rapid equilibrium with monomer

B1: S175G/H181Q βB2-crystallin (natural protein, human)
chain: ASDHQTQAGKPQSLNPKIIIFEQENFQGHSHELNGPCPNLKETGVEKAGSVLVQAGPWVGYEQANCKGEQFVFEKGEYPRWDSWTSSRRTDSLSSLRPIKVDSQEHKIILYENPNFTGKKMEIIDDDVPSFHAHGYQEKVSSVRVQSGTWVGYQYPGYRGLQYLLEKGDYKDSGDFGAPQPQVQSVRRIRDMQWHQRGAFHPSN
notes: human βB2-crystallin with the double mutation found in nuclear cataract lenses, made by site-directed mutagenesis of pGEX-4t-1 CRBB2; also called S175G/H181Q mutant; CRBB2 S175G/H181Q; source: E. coli BL21 (DE3), purified (glutathione-agarose, cleaved from GST with thrombin)
binding result: binds
